Source: patent publication US20070009988A1

How the values were obtained:
[1] = biological target: gliadin 33mer … (wheat); assay: cell-based or functional assay
[2] = biological target: T1, gliadin 33mer LQLQPFPQPQLPYPQPQLPYPQPQLPYPQPQPF
T1 chain: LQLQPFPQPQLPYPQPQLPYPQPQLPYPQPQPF

[3] = biological target: T2, gliadin 14mer PQPQLPYPQPQLPY
T2 chain: PQPQLPYPQPQLPY

[4] = biological target: Ala-proNPY
[5] = biological target: Gly-Ser-proNPY

In the case of Pronase, the digestion of the peptide over 20 h, E/S=1/25 [1] is reported as < 40%.

B1: cytosolic leucine aminopeptidase from porcine kidney (Sigma) (protein)
chain: TKGLVLGIYSKEKEDDAPQFTSAGENFDKLVSGKLREILNISGPPLKAGKTRTFYGLHEDFSSVVVVGLGKKGAGVDDQENWHEGKENIRAAVAAGCRQIQDLEIPSVEVDPCGDAQAAAEGAVLGLYEYDELKQKKKVVVSAKLHGSGDQEAWQRGVLFASGQNLARHLMETPANEMTPTRFAEVIEKNLKSASSKTDVHIRPKSWIEEQEMGSFLSVAKGSEEPPVFLEIHYKGSPDASDPPLVFVGKGITFDSGGISIKASANMDLMRADMGGAATICSTIVSAAKLDLPINLVGLAPLCENMPSGKANKPGDVVRAKNGKTIQVDNTDAEGRLILADALCYAHTFNPKVIINAATLTGAMDIALGSGATGVFTNSSWLWNKLFEASIETGDRVWRMPLFEHYTKQIVDCQLADVNNIGKYRSAGACTAAAFLKEFVTHPKWAHLDIAGVMTNKDEVPYLRKGMAGRPTRTLIEFLLRFSQDSA
In the case of B1, the “digestion of the peptide, RP-HPLC” value [2] is reported as “Cytosolic porcine kidney aminopeptidase is totally inactive towards the 33mer”.

B2: recombinant ruLAP2 (aminopeptidase II of Trichophyton rubrum) produced in P. pastoris (protein)
chain: RLVGQEPFGWPFKPMVTQDDLQNKIKLKDIMAGVEKLQSFSDAHPEKNRVFGGNGHKDTVEWIYNEIKATGYYDVKKQEQVHLWSHAEAALNANGKDLKASAMSYSPPASKIMAELVVAKNNGCNATDYPANTQGKIVLVERGVCSFGEKSAQAGDAKAAGAIVYNNVPGSLAGTLGGLDKRHVPTAGLSQEDGKNLATLVASGKIDVTMNVISLFENRTTWNVIAETKGGDHNNVIMLGAHSDSVDAGPGINDNGSGSIGIMTVAKALTNFKLNNAVRFAWWTAEEFGLLGSTFYVNSLDDRELHKVKLYLNFDMIGSPNFANQIYDGDGSAYNMTGPAGSAEIEYLFEKFFDDQGIPHQPTAFTGRSDYSAFIKRNVPAGGLFTGAEVVKTPEQVKLFGGEAGVAYDKNYHRKGDTVANINKGAIFLNTRAIAYAIAEYARSLKGFPTRPKTGKRDVNPQYSKMPGGGCGHHTVFM
B2 was tested, and the “digestion of the peptide, 37 C, 4 h, RP-HPLC and ESI-MS” value [3] was “the 14mer is not digested with ruLAP2 within 4 h. There is no change in the HPLC profile when compared with the control. In fact, digestion results only in the cleavage of the N-terminal Proline”, the “mass loss after overnight digestion (ESI-MS)” value [4] was “the N-terminal alanine was almost totally removed (molecular mass loss of 71 amu) from proNPY” and the “mass loss after overnight digestion (ESI-MS), E/S 1:20 and 1:100” value [5] was “incubation with ruLAP2 results in the cleavage of the two N-terminal residues Gly-Ser with a theoretical loss of 144.1 amu (found 144.2)”.

B3: microsomal leucine aminopeptidase from porcine kidney (Sigma) (protein)
chain: YAQEKNKNAEHVPQAPTSPTITTTAAITLDQSKPWNRYRLPTTLLPDSYNVTLRPYLTPNADGLYIFKGKSIVRLLCQEPTDVIIIHSKKLNYTTQGHMVVLRGVGDSQVPEIDRTELVELTEYLVVHLKGSLQPGHMYEMESEFQGELADDLAGFYRSEYMEGNVKKVLATTQMQSTDARKSFPCFDEPAMKATFNITLIHPNNLTALSNMPPKGSSTPLAEDPNWSVTEFETTPVMSTYLLAYIVSEFQSVNETAQNGVLIRIWARPNAIAEGHGMYALNVTGPILNFFANHYNTSYPLPKSDQIALPDFNAGAMENWGLVTYRENALLFDPQSSSISNKERVVTVIAHELAHQWFGNLVTLAWWNDLWLNEGFASYVEYLGADHAEPTWNLKDLIVPGDVYRVMAVDALASSHPLTTPAEEVNTPAQISEMFDSISYSKGASVIRMLSNFLTEDLFKEGLASYLHAFAYQNTTYLDLWEHLQKAVDAQTSIRLPDTVRAIMDRWTLQMGFPVITVDTKTGNISQKHFLLDSESNVTRSSAFDYLWIVPISSIKNGVMQDHYWLRDVSQAQNDLFKTASDDWVLLNVNVTGYFQVNYDEDNWRMIQHQLQTNLSVIPVINRAQVIYDSFNLATAHMVPVTLALDNTLFLNGEKEYMPWQAALSSLSYFSLMFDRSEVYGPMKKYLRKQVEPLFQHFETLTKNWTERPENLMDQYSEINAISTACSNGLPQCENLAKTLFDQWMSDPENNPIHPNLRSTIYCNAIAQGGQDQWDFAWGQLQQAQLVNEADKLRSALACSNEVWLLNRYLGYTLNPDLIRKQDATSTINSIASNVIGQPLAWDFVQSNWKKLFQDYGGGSFSFSNLIQGVTRRFSSEFELQQLEQFKKNNMDVGFGSGTRALEQALEKTKANIKWVKENKEVVLNWFIEHS
With B3 the “digestion of the peptide, RP-HPLC and ESI-MS” value [2] was “incubation with microsomal porcine kidney aminopeptidase results only in a partial deletion of N-terminal Leu and C-terminal Phe (due to a carboxypeptidasic contaminant)”.
